The target of this experiment is T1, recombinant PN (rPN) (UniProt Q15063 22-836).
T1 construct: periostin (PN), recombinant, bought; also called periostin; source: bought: BioVendor (RD172045025)
T1 sequence (looked up): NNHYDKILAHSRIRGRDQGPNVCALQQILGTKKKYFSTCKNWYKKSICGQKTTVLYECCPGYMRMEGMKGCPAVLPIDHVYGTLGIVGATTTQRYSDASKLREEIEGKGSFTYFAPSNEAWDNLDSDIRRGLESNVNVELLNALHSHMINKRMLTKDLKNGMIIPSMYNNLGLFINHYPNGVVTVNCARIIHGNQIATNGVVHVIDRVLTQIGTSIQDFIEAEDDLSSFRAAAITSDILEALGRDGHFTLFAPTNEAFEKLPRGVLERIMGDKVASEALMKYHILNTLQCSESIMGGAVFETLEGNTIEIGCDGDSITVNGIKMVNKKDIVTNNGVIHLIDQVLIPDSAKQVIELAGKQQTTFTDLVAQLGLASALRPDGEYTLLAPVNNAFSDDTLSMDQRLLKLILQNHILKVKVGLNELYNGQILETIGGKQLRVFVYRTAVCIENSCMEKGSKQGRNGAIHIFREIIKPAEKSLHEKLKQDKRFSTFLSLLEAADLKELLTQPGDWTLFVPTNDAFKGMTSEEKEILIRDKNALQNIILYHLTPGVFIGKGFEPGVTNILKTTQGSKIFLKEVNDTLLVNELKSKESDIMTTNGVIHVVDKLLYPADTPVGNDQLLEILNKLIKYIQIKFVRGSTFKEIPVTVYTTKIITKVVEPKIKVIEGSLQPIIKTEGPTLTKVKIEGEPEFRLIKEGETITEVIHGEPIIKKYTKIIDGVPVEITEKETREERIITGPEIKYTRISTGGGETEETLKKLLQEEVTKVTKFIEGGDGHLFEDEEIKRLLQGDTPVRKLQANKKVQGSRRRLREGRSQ
As to the kind of experiment: ITC; MicroCal PEAQ-ITC; 700 nM rPN (or BSA) and 100 nM plain anti-PN peptide in 50 mM Tris, 150 mM NaCl, pH 7.5, in syringe and cell compartments. The conditions noted are these: both partners purified. For orientation: Isothermal titration calorimetry measures the heat released or taken up as one component is titrated into another.

B1: plain anti-PN peptide (peptide)
peptide: TFATHGKHWAAP
notes: The methods mention C-terminal amidation after describing the FITC-labelled form; it is not clear whether the plain peptide is amidated too; also called candidate anti-PN peptide; source: synthetic peptide (ordered from Syn Peptide company, Shanghai)
What is called Kd is a measure of binding affinity in units of concentration. For B1, the Kd turned out to be 1 pM.

The record behind these values is publication PMC7807878, “Development of an engineered peptide antagonist against periostin to overcome doxorubicin resistance in breast cancer” (BMC Cancer, 2021).
